Reference: patent publication US20220281969A1 (ANTLERA THERAPEUTICS, published 2022)

Biological target: T1, recombinant human LRP6-Fc chimera (human, UniProt O75581 20-1370)
T1 construct: extracellular domain; also called human LRP6 chimera; not shown: Fc part of the chimera
T1 sequence (looked up): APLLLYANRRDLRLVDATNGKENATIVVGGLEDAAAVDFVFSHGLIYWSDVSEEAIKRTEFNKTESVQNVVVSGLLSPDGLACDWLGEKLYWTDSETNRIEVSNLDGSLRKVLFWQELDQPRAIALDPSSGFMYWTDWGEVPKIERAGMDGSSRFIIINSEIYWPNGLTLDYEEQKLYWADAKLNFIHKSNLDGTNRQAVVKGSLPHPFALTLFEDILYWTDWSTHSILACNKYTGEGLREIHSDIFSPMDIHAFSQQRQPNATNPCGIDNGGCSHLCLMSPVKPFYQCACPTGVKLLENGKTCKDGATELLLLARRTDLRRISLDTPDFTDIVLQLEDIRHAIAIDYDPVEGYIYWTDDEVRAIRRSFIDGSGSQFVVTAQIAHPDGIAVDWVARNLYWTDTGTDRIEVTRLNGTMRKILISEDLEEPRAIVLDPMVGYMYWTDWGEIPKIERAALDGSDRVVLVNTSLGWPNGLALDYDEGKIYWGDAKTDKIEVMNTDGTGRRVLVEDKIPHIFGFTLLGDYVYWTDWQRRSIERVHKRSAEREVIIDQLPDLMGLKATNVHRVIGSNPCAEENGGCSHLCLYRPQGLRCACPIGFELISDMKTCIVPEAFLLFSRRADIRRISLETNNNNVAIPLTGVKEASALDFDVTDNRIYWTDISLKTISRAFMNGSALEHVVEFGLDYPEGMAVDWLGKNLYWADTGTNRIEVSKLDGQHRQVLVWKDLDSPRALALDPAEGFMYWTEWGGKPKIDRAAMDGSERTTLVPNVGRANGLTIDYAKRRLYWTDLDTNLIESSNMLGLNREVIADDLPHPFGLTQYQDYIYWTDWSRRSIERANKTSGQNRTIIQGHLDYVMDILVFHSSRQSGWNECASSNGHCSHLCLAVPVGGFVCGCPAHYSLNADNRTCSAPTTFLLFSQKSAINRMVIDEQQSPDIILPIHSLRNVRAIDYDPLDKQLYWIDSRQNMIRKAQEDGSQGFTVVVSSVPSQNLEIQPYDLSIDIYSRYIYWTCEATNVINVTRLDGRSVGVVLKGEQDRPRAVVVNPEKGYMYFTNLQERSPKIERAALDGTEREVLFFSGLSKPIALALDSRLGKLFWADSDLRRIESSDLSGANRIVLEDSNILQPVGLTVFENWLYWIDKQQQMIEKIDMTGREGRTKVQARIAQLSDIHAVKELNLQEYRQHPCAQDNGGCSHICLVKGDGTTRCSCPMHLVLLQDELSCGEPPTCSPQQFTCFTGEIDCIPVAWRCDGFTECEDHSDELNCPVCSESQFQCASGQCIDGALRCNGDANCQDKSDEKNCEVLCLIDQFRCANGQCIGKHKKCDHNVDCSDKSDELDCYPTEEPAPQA
Test: single-point ELISA, IgG1 on coated antigen
Experimental: FIGS. 1a and 1b show LRP six antibodies. (A) The amino acid sequences of the complementarity determining regions (CDR) of the heavy (H) and the light (L) chains are presented. The antibodies were grouped into unique epitopes as determined by competitive ELISAs. (B) Single-point ELISAs were performed on 96-well Maxisorb immune plates coated with the […] of mouse LRP5, mouse LRP6 and human LRP6 chimeras. The plates were incubated with the purified Fab or IgG1 at the concentrations indicated followed by incubation with horseradish peroxidase (HRP)-conjugated anti-kappa antibody. The wells were washed eight times followed by incubation with 3,3′,5,5′-tetramethylbenzidine/H₂O₂ peroxidase (TMB) substrate for 5-10 min. The reaction was stopped by adding one M H₃PO₄ and the absorbance was measured spectrometrically at 450 nm in a microtiter plate reader.
The full length IgG1s were purified and a single-point ELISA was done to determine the specificity of the antibodies. […] A multipoint competitive ELISA was used to determine the relative affinities of the antibodies to the recombinant antigen.

- binding result: no binding
B1: LRP6-E3 IgG1 antibody (antibody, V domains shown)
VH: EVQLVESGGGLVQPGGSLRLSCAASGFNLYYYSMHWVRQAPGKGLEWVASIYSSYGYTYYADSVKGRFTISADTSKNTAYLQMNSLRAEDTAVYYCARYAGYYYYPWAYYGWPFSGLDYWGQGTLVTVSS
VL: DIQMTQSPSSLSASVGDRVTITCRASQSVSSAVAWYQQKPGKAPKLLIYSASSLYSGVPSRFSGSRSGTDFTLTISSLQPEDFATYYCQQAGSAPYHLITFGQGTKVEIKR
notes: Tested as purified full length IgG1
